Results on one molecule are retold here after paper doi:10.1101/739813 (bioRxiv, 2019).

The data set “crystal structure” deals with the molecule itself. The experiment in a line: crystal structure.
The target of data set [1] is pRab8a(GTP): Rab8a (Q67L, residues 1-181) phosphorylated at T72, GTP-bound (UniProt P61006). The experiment in a line: ITC.

Where no end group is shown, it is not given here.

Sequence of UniProt P61006 (P61006 1-181 Q67L): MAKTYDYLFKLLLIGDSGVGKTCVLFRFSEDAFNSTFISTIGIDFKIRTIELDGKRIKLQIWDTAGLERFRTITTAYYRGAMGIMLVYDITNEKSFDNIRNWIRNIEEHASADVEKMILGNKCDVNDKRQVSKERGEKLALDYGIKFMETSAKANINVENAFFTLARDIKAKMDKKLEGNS

For His6-NRPRFTLQELRDVLQERNKLKSQLLVVQEELQCYKSG (peptide, UniProt Q969X0 129-165, looked up) [His6-RILPL2, phospho-Rab binding domain of RILPL2 (residues 129-165)], the binding result in “crystal structure” is given as “binds”. The molecule also yielded a Kd in data set [1] of 3.3 µM.
